We go through two substances from article PMC5722895.

pKd: −log10 of the molar value. Where only a bound is given, the exact number is not on record here.

Assay [1] deals with His6-tagged full-length TF (E. coli) (UniProt P0A850). Description: SEC-MALS; preliminary data on His6-tagged full-length TF; elution concentration 10 µM; conservative estimate of KD.
Assay [2] has as its target RBD–SBD (1–148/247–432) (E. coli) (UniProt P0A850). Description: AUC; sedimentation equilibrium, 6 °C, 100 mM KCl (sample buffer: 20 mM K-phosphate pH 6.5, 100 mM KCl, 0.5 mM EDTA); 12 μM TF, 48 and 135 μM RBD–SBD; global fit to a monomer–dimer model; dimer to monomers.
The target is the same in assay [3]. Description: SEC-MALS; sample buffer (20 mM K-phosphate pH 6.5, 100 mM KCl, 0.5 mM EDTA); 6 °C for the individual domains; concentration series fitted to a fast monomer–dimer equilibrium; dimer to monomers. (Size exclusion chromatography separates by hydrodynamic size, large species first.)
Assay [4] shares this target. Description: SEC-MALS; as a2 but 500 mM KCl; dimer to monomers.
Assay [5] has the same target. Description: SEC-MALS; as a2 but 250 mM KCl; dimer to monomers.

For the substance “His6-tagged full-length TF (from UniProt P0A850 1-432) (natural protein)”, in assay [1], the pKd (commonly the negative decadic logarithm of the Kd, by convention in mol/L) was greater than 7.00 and the stoichiometry N (commonly the number of molecules, sites or subunits per partner or assembly) was 2.
On to “RBD–SBD (1–148/247–432) (from UniProt P0A850 1-148; P0A850 247-432) (domain or fragment)”, for which the pKd in assay [2] was 4.27; in assay [3], 4.14; in assay [4] it was less than 3.30; in assay [5] it was less than 3.30. In assay [3], this substance gave a stoichiometry N of 2.
